Substitutions are numbered along the chain they refer to. Ends that are not written are not given here.
B1: SEQ ID NO: 5 (ligand)
chain: FVDQHLCGSHLVEALYLVCGERGFFYTPKTYDGKGIVEQCCTSICSLYQLENYCG
modifications: ends and bridges not checked; cysteine pairing not given here
notes: Single chain insulin analog (B chain-C'-A chain)
B2: SEQ ID NO: 7 (ligand)
chain: B1 chain with D3G
modifications: ends and bridges not checked; cysteine pairing not given here
notes: as for B1

Target: insulin receptor (IR) (UniProt P06213 28-1382)
Assay: method not stated; in the absence of glucose

Binder	Kd [nM]
B1	4.51
B2	1.21

Reference: patent US20240343773A1 (AMIDEBIO, published 2024)
